How the values were obtained:
[1] = target: human claudin 18 isoform 2 (claudin 18.2) (human); experiment: cell-based or functional assay
[2] = target: T1, human claudin 18 isoform 2 (claudin 18.2) (human); experiment: immunofluorescence imaging, CHO-CLDN18.2 cells (FIG. 3C); Table 6 prints 1.3
T1 construct: Recombinant on transfected CHO cells (CHO-CLDN18.2) or endogenous on tumor cell lines PATU8988S, NUGC-4, KATOIII; the cell line is named under assay; also called CLDN18.2
Protocol: (§1) The specific cellular binding affinity of anti-Claudin18.2 antibodies was tested on CHO-CLDN18.2 (transfected CHO cell expressing recombinant human CLDN18.2) and CHO-CLDN18.1 (transfected CHO cell expressing recombinant human CLDN18.1) cells. The cells were plated in complete media containing F12 with 10% FBS, then incubated overnight at 37° C., anti-Claudin18.2 antibodies were serial diluted and added to the assay plates, incubated at 4° C. for 2 hours, followed by fixing cells and further staining the cells for 30 minutes with Alexa Fluor® 488 Goat Anti-Human IgG (H+L) secondary antibody, invitrogen Cat #A-11013 for detection. The binding was assessed by imaging the cells and quantifying the fluorescence intensity using a Biotek Cytation.

[3] = target: T1, human claudin 18 isoform 2 (claudin …); experiment: cell-based or functional assay; remark: listed apart in the source
[4] = target: T2, human claudin 18 isoform 1 (claudin 18.1) (human, UniProt P56856 1-261); experiment: immunofluorescence imaging on CHO cells expressing human CLDN18.1, antibody at 10 µg/ml
T2 construct: Recombinant on transfected CHO cells (CHO-CLDN18.1); also called CLDN18.1
How it was run: (§2)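 Binding on CHO cells transfected with human CLDN18.2, with human CLDN18.1 transfectants as counter-screen, plated overnight at 37° C. Serially diluted antibodies incubated 2 h at 4° C; fixed cells stained 30 min with Alexa Fluor 488 anti-human IgG and fluorescence intensity quantified by imaging.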

[5] = target: T1, human claudin 18 isoform 2 (claudin …); experiment: immunofluorescence imaging, CHO-CLDN18.2 cells, serial dilution
How it was run: as §2

[6] = target: T1, human claudin 18 isoform 2 (claudin …); experiment: imaging, PATU8988S cells (endogenous CLDN18.2); +++ = EC50 between 2 nM and 20 nM
Protocol: Tumor cells were plated in complete media containing RPMI1640 with +10% FBS, then incubated overnight at 37° C., Claudin18.2 antibodies were serial diluted and added to the assay plates, incubated at 4° C. for 2 hours, followed by fixing cells and further staining the cells for 30 minutes with Alexa Fluor® 488 Goat Anti-Human IgG (H+L) secondary antibody (invitrogen Cat #A-11013) for detection. The binding was assessed by imaging the cells and quantifying the fluorescence intensity using a Biotek Cytation.

[7] = target: T2, human claudin 18 isoform 1 (claudin …); experiment: imaging, CHO-CLDN18.1 cells, dose titration
Protocol: as §1

[8] = target: T1, human claudin 18 isoform 2 (claudin …); experiment: immunofluorescence imaging, CHO-CLDN18.2 cells; low end tied to Hu-18 by Table 6 (0.8)
Protocol: as §1

T2 sequence (P56856 whole entry, canonical isoform): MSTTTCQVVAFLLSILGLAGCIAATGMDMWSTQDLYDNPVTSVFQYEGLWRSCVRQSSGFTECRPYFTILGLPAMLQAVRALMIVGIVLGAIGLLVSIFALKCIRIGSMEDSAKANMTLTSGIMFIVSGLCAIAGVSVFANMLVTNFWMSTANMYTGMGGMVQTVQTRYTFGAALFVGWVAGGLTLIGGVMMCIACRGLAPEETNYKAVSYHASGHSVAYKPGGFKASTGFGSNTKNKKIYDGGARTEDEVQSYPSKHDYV

EC50 [2] [nM] | ADCC EC50, CHO-18.2 target cells (mouse FcγRIV reporter bioluminescence) [3] [nM] | binding result [4] | EC50 [5] [nM] | EC50 [6] [nM] | binding result [7] | EC50 [8] [nM] | Binder | endocytosis derived cell toxicity EC50, CHO-18.2 cells (anti-IgG Fc-MMAF co-internalization) [1] [nM]
1.34 | 3.11 | no binding (tested: 10 µg/ml) | 1.3 | 2 to 20 | – | – | Hu-3 (antibody, V domains shown) VH: QLQLQESGPGLVKPSETLSLTCTVSDGPISSSRYYWGWIRQPPGKGLEWIGSFHYSGSTYYNPSLKSRVTISADTSKNQFSLKLSSVTAADTAVYYCARLVLRYFDWLGFFDLWGRGTLVTVSS VL: EIVMTQSPAILSLSPGERAALSCRASQSVRSSYLSWYQQKPGQAPRLLIYGTSTRATGIPARFSGSGSGTDFTLTISSLQPEDFAVYYCQQDYNLPITFGQGTRLEFK | 1.23
– | – | – | 0.8 | – | no binding (tested: 133.4 nM) | 0.77 | Hu-18 (antibody, V domains shown, Human V regions (Trianni mice)) VH: QVQLVQSGAEVKKPGASVKVSCRVSGYTLSALSMYWVRQAPGKGLEWMGGFDPEDGKTIYAQKFQGRVTMTEDTSTGTAYMELSSLRSEDTAIYYCATTLRYFDWNYWGQGTPVTVSS VL: DIVMTQTPLSSPVTLGQPASISCRSSQSLVHSDGNTYLSWLQQRPGQPPRLLIYKVSKRFSGVPDRFSGSGAGTDFTLKISRVEAEDVGVYYCTQGTQFPRTFGQGTKVEIK | –

From patent publication US20230067757A1 (NOVAROCK BIOTHERAPEUTICS, published 2023)
